Assay results from patent US20100068766A1, “COMPOSITION FOR CLEAVING AND/OR CONNECTING SINGLE STRAND DNA” (WASEDA UNIVERSITY, priority 2007, published 2010).

Assays:
[1] = target: T1, Ev1 protein (Homo sapiens, UniProt Q9UI08); assay: Influence of Rad51B or Rad51 on catenation of single-stranded DNA by the Ev1 protein; format: biochemical
T1 construct: in accordance with the protocols used in purification of the entire-length Ev1 protein; 6xHis (N, cleaved yes); made in house; host or cells: E. coli BL21 (DE3) codon plus-RP, pET15b vector
T1 sequence (Q9UI08 1-418 isoform Q9UI08-2): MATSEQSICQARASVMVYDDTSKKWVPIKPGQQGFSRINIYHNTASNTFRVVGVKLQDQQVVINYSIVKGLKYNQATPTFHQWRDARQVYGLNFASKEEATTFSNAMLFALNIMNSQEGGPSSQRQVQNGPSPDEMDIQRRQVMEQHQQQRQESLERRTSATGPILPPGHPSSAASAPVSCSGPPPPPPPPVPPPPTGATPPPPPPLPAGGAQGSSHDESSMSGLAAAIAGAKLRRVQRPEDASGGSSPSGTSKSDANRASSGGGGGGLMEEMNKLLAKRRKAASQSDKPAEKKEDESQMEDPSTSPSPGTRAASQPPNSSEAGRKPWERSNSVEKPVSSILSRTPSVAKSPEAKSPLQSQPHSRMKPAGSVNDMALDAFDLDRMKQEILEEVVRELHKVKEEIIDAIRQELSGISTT
Experimental: Lanes 1 and 5 indicate the results of control experiments in which neither the Ev1 nor the Rad51B protein was used. Lanes 2 and 6 indicate the results of experiments that were carried out using a 4 μM Rad51B protein in the absence of the Ev1 protein. Lanes 3 and 7 indicate the results of experiments that were carried out using a 4 μM Ev1 protein in the absence of the Rad51B protein. Lanes 4 and 8 indicate the results of experiments that were carried out using a 4 μM Ev1 protein and a 4 μM Rad51B protein. Further, lanes 1-4 indicate the results of experiments that were carried out in the presence of ATP, and lanes 5-8 indicate the results of experiments that were carried out in the absence of ATP. […] Lanes 1 and 5 indicate the results of control experiments in which neither the Ev1 nor the Rad51 protein was used. Lanes 2 and 6 indicate the results of experiments that were carried out using a 4 μM Rad51 protein in the absence of the Ev1 protein. Lanes 3 and 7 indicate the results of experiments that were carried out using a 4 μM Ev1 protein in the absence of the Rad51 protein. Lanes 4 and 8 indicate the results of experiments that were carried out using a 4 μM Ev1 protein and a 4 μM Rad51 protein. Further, lanes 1-4 indicate the results of experiments that were carried out in the presence of ATP, and lanes 5-8 indicate the results of experiments that were carried out in the absence of ATP.
The Rad51B protein was mixed in a concentration of 0.5 to 8 μM with a 4 μM Ev1 protein, and the activity was then measured. Lane 1 indicates the results of a control experiment in which neither the Rad51B protein nor the Ev1 protein was added, and lane 8 indicates the results of a control experiment in which a 8 μM Rad51B protein was added and no Ev1 protein was added. Lanes 2-7 indicate the results of experiments in which the Rad51B protein was added in concentrations of 0 μM, 0.5 μM, 1.0 μM, 2.0 μM, 4.0 μM, and 8.0 μM, respectively, in the presence of 4 μM Ev1.
A φ×174 or M13 mp18 circular single-stranded DNA (20 μM) was incubated at 37° C. in 20 mM HEPES-NaOH (pH 7.5), 1 mM DTT, 1 mM MgCl2, and 0.1 mg/ml BSA. Thereafter, the sample was subjected to a deproteination treatment with 0.2% SDS and 1.3 mg/ml proteinase K. The obtained product was separated by 0.9% agarose gel electrophoresis, and a DNA band was then stained with SYBR Gold (Invitrogen).

[2] = target: T1, Ev1 protein; assay: Catenation of single-stranded DNA in coexistence of DNA topoisomerase type I protein and Ev1 protein; format: biochemical; conditions: 20 μM φ×174 single-stranded DNA; 37° C., 1 hour; E. coli TopoI 0.05-5 U or 2.8 nM hsTopoI
Experimental: A 20 μM φ×174 single-stranded DNA, a 4 μM Ev1 protein, and a DNA topoisomerase type I protein in each concentration or unit number (derived from Escherichia coli or a human) were added to 10 μl of a reaction solution (20 mM HEPES, 1 mM DTT, 100 μg/ml BSA, and 1 mM MgCl2). The obtained mixture was reacted at 37° C. for 1 hour. Thereafter, the sample was subjected to a deproteination treatment using 0.2% SDS and 1.3 mg/ml proteinase K. The obtained product was separated by 0.9% agarose gel electrophoresis, and a DNA band was then stained with SYBR Gold (Invitrogen) (FIG. 13).

B1: Rad51 protein: Rad51 protein showing sequence similarity to Rad51B (protein, UniProt Q06609 2-339, looked up)
DNA repair protein RAD51 …: AMQMQLEANADTSVEEESFGPQPISRLEQCGINANDVKKLEEAGFHTVEAVAYAPKKELINIKGISEAKADKILAEAAKLVPMGFTTATEFHQRRSEIIQITTGSKELDKLLQGGIETGSITEMFGEFRTGKTQICHTLAVTCQLPIDRGGGEGKAMYIDTEGTFRPERLLAVAERYGLSGSDVLDNVAYARAFNTDHQTQLLYQASAMMVESRYALLIVDSATALYRTDYSGRGELSARQMHLARFLRMLLRLADEFGVAVVITNQVVAQVDGAAMFAADPKKPIGGNIIAHASTTRLYLRKGRGETRICKIYDSPCLPEAEAMFAINADGVGDAKD
- effect on catenation of DNA molecules by the Ev1 protein ([1]; 4 μM Rad51, 4 μM Ev1 protein, regardless of presence or absence of ATP): inhibited the catenation of DNA molecules by the Ev1 protein

B2: DNA topoisomerase type I protein derived from Escherichia coli: TopoI (E. coli, New England Biolabs) (protein, UniProt P06612 1-865, looked up)
DNA topoisomerase 1: MGKALVIVESPAKAKTINKYLGSDYVVKSSVGHIRDLPTSGSAAKKSADSTSTKTAKKPKKDERGALVNRMGVDPWHNWEAHYEVLPGKEKVVSELKQLAEKADHIYLATDLDREGEAIAWHLREVIGGDDARYSRVVFNEITKNAIRQAFNKPGELNIDRVNAQQARRFMDRVVGYMVSPLLWKKIARGLSAGRVQSVAVRLVVEREREIKAFVPEEFWEVDASTTTPSGEALALQVTHQNDKPFRPVNKEQTQAAVSLLEKARYSVLEREDKPTTSKPGAPFITSTLQQAASTRLGFGVKKTMMMAQRLYEAGYITYMRTDSTNLSQDAVNMVRGYISDNFGKKYLPESPNQYASKENSQEAHEAIRPSDVNVMAESLKDMEADAQKLYQLIWRQFVACQMTPAKYDSTTLTVGAGDFRLKARGRILRFDGWTKVMPALRKGDEDRILPAVNKGDALTLVELTPAQHFTKPPARFSEASLVKELEKRGIGRPSTYASIISTIQDRGYVRVENRRFYAEKMGEIVTDRLEENFRELMNYDFTAQMENSLDQVANHEAEWKAVLDHFFSDFTQQLDKAEKDPEEGGMRPNQMVLTSIDCPTCGRKMGIRTASTGVFLGCSGYALPPKERCKTTINLVPENEVLNVLEGEDAETNALRAKRRCPKCGTAMDSYLIDPKRKLHVCGNNPTCDGYEIEEGEFRIKGYDGPIVECEKCGSEMHLKMGRFGKYMACTNEECKNTRKILRNGEVAPPKEDPVPLPELPCEKSDAYFVLRDGAAGVFLAANTFPKSRETRAPLVEELYRFRDRLPEKLRYLADAPQQDPEGNKTMVRFSRKTKQQYVSSEKDGKATGWSAFYVDGKWVEGKK
- effect on catenation of single-stranded DNA molecules in coexistence with the Ev1 protein [2]: promoted

B3: DNA topoisomerase type I protein derived from a human: hsTopoI (human, Jena Bioscience) (protein, UniProt P11387 2-765, looked up)
DNA topoisomerase 1: SGDHLHNDSQIEADFRLNDSHKHKDKHKDREHRHKEHKKEKDREKSKHSNSEHKDSEKKHKEKEKTKHKDGSSEKHKDKHKDRDKEKRKEEKVRASGDAKIKKEKENGFSSPPQIKDEPEDDGYFVPPKEDIKPLKRPRDEDDADYKPKKIKTEDTKKEKKRKLEEEEDGKLKKPKNKDKDKKVPEPDNKKKKPKKEEEQKWKWWEEERYPEGIKWKFLEHKGPVFAPPYEPLPENVKFYYDGKVMKLSPKAEEVATFFAKMLDHEYTTKEIFRKNFFKDWRKEMTNEEKNIITNLSKCDFTQMSQYFKAQTEARKQMSKEEKLKIKEENEKLLKEYGFCIMDNHKERIANFKIEPPGLFRGRGNHPKMGMLKRRIMPEDIIINCSKDAKVPSPPPGHKWKEVRHDNKVTWLVSWTENIQGSIKYIMLNPSSRIKGEKDWQKYETARRLKKCVDKIRNQYREDWKSKEMKVRQRAVALYFIDKLALRAGNEKEEGETADTVGCCSLRVEHINLHPELDGQEYVVEFDFLGKDSIRYYNKVPVEKRVFKNLQLFMENKQPEDDLFDRLNTGILNKHLQDLMEGLTAKVFRTYNASITLQQQLKELTAPDENIPAKILSYNRANRAVAILCNHQRAPPKTFEKSMMNLQTKIDAKKEQLADARRDLKSAKADAKVMKDAKTKKVVESKKKAVQRLEEQLMKLEVQATDREENKQIALGTSKLNYLDPRITVAWCKKWGVPIEKIYNKTQREKFAWAIDMADEDYEF
- effect on catenation of single-stranded DNA molecules in coexistence with the Ev1 protein [2]: promoted

B4: Rad51B: Rad51B protein purified by the previously reported method (Yokoyama et al.) (protein)
chain: MGSKKLKRVGLSQELCDRLSRHQILTCQDFLCLSPLELMKVTGLSYRGVHELLCMVSRACAPKMQTAYGIKAQRSADFSPAFLSTTLSALDEALHGGVACGSLTEITGPPGCGKTQFCIMMSILATLPTNMGGLEGAVVYIDTESAFSAERLVEIAESRFPRYFNTEEKLLLTSSKVHLYRELTCDEVLQRIESLEEEIISKGIKLVILDSVASVVRKEFDAQLQGNLKERNKFLAREASSLKYLAEEFSIPVILTNQITTHLSGALASQADLVSPADDLSLSEGTSGSSCVIAALGNTWSHSVNTRLILQYLDSERRQILIAKSPLAPFTSFVYTIKEEGLVLQAYGNS
- effect on catenation of DNA molecules by the Ev1 protein ([1]; 4 μM Rad51B, 4 μM Ev1 protein, absence of ATP): not significant
- effect on catenation of DNA molecules by the Ev1 protein ([1]; 4 μM added protein, 4 μM Ev1 protein, presence of ATP): significantly promoted
